Earlier results on one substance are cited in article PMC2749146.

For the data set, the system named is Cys. Briefly: UV-vis. The conditions noted are these: Reduced; the protein unfolds below pH 3, so deprotonation and unfolding overlap.

DsbA (EcDsbA) (Escherichia coli): the pKa result is given as “∼3.5”.
